Measurements taken from patent publication US20080031815A1 (published 2008).
Values belong to the binder of their own block, whether it stands above or below them.

Assays:
[1] = biological target: T1, human VEGFR-1 (FLT-1) expressed on porcine aortic endothelial cells (PAE/FLT-1) (human), P17948; assay: competitive cell binding on PAE/FLT-1 cells, 125I-VEGF165 as radioligand; conditions: remark: other sources report otherwise
T1 chain: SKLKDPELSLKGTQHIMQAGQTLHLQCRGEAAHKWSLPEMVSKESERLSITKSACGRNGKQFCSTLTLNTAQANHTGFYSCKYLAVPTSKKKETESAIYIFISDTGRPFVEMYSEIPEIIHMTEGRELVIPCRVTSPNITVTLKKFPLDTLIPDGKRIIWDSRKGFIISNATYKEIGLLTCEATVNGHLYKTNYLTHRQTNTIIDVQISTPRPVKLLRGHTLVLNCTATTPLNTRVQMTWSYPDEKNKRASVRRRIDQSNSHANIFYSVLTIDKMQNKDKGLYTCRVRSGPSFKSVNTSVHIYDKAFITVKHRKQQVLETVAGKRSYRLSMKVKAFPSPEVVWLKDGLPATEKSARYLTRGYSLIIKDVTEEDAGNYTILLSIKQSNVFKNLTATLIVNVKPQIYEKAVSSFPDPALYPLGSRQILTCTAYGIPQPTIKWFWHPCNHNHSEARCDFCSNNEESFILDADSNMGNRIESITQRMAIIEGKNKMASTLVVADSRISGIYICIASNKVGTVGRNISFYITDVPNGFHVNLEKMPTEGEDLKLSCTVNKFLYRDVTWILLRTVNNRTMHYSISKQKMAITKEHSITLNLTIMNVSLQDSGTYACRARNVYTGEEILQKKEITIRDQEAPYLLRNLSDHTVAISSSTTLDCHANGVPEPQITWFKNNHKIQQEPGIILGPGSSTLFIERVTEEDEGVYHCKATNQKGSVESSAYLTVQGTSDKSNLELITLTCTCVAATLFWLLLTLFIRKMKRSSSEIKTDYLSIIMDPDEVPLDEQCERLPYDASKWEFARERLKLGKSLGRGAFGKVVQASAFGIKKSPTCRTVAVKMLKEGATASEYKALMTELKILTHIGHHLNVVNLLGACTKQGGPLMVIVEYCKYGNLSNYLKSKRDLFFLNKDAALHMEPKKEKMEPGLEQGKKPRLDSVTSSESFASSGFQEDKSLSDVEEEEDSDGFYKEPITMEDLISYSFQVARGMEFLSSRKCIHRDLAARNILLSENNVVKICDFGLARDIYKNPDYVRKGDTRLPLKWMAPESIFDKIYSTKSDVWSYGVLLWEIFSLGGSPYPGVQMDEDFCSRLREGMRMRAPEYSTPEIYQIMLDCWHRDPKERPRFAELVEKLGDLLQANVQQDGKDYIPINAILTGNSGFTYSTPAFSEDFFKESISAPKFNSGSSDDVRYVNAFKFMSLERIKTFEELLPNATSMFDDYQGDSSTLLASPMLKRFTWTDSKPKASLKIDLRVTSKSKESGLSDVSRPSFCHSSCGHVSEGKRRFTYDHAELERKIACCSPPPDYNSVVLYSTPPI

[2] = biological target: T2, human VEGFR-2 (KDR) expressed on porcine aortic endothelial cells (PAE/KDR) (human, UniProt P35968 20-1356); assay: cell-based or functional assay
T2 sequence (P35968 20-1356): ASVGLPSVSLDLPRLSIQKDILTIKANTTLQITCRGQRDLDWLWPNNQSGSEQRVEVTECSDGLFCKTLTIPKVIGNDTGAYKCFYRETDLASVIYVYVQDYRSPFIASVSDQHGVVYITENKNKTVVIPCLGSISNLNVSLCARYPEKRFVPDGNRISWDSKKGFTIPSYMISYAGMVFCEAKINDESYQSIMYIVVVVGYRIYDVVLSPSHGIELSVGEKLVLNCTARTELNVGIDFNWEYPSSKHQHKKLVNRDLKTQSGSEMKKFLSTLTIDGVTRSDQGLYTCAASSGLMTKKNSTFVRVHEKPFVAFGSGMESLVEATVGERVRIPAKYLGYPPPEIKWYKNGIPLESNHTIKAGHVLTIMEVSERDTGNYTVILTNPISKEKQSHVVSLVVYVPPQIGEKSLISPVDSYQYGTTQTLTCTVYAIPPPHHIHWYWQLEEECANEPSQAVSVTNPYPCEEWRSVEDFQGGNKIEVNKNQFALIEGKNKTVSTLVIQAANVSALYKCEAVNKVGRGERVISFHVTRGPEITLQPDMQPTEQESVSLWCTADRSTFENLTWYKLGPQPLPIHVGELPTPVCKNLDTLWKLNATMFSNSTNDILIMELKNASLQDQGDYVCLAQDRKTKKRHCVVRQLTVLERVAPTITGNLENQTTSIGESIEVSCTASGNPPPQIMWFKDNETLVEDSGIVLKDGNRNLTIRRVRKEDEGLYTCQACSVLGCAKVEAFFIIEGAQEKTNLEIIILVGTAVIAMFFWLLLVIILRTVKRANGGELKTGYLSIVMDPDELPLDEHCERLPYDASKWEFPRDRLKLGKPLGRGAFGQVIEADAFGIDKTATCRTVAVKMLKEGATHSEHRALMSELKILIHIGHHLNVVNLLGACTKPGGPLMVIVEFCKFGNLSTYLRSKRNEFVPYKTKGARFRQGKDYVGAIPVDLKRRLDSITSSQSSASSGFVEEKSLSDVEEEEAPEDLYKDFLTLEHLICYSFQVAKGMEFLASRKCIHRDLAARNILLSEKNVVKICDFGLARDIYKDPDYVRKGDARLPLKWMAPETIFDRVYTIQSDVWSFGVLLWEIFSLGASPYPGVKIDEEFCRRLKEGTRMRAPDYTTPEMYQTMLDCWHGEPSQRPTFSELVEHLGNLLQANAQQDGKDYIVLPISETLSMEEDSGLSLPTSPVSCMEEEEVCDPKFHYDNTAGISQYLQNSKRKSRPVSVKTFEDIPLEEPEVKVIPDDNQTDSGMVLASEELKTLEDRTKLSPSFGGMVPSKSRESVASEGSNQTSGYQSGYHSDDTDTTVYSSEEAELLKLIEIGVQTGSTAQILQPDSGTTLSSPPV

[3] = biological target: T2, human VEGFR-2 (KDR) expressed on …; assay: competitive cell binding on PAE/KDR cells, 125I-VEGF165 as radioligand
Procedure: (§1) The detailed procedure of competitive cell binding assay has been described herein. VEGFR-1 and VEGFR-2 binding affinity of VEGF₁₂₁, VEGFDEE, and the DOTA conjugates was evaluated by PAE/FLT-1 and PAE/KDR cell binding assays using ¹²⁵I-VEGF₁₆₅ (VEGF₁₆₅ protein (SEQ ID No: 4)) as the radioligand. The best-fit IC₅₀ values were calculated by fitting the data by nonlinear regression using GraphPad Prism (GraphPad Software, Inc.). Experiments were carried out with triplicate samples.

[4] = biological target: T2, human VEGFR-2 (KDR) expressed on …; assay: competitive cell binding on PAE/KDR cells, 125I-VEGF165 as radioligand (Example 2)
[5] = biological target: T2, human VEGFR-2 (KDR) expressed on …; assay: competitive cell binding on PAE-KDR cells, 125I-VEGF165 as radioligand
Procedure: (§2) Porcine aortic endothelial cells (PAE-KDR cells) stably transfected to express human VEGFR2 (KDR) and porcine aortic endothelial cells (PAE cells) not expressing VEGFR1 and VEGFR2 were cultured in Ham's F-12 medium containing 10% fetal bovine serum (Sigma-Aldrich, Saint Louis, Mo.). Using ¹²⁵I-VEGF₁₆₅ as the radioligand, receptor-binding affinity of VEGF₁₂₁ and VEGFNLS for VEGFR2 was performed as described elsewhere for both PAE-KDR and PAE cells (J Med. Chem. 2005; 48:1098-1106, which is include herein by reference). […] Serially diluted VEGF₁₂₁ or VEGFNLS were then added to compete with the radioligand ¹²⁵I-VEGF₁₆₅. After 2 h incubation at room temperature, the plates were washed and bound ¹²⁵I-VEGF₁₆₅/sVEGFR1 complex was dissociated by acidified 0.1% SDS solution, the eluent was collected and the radioactivity was measured by a gamma counter (Cobra II Auto-Gamma; Perkin-Elmer, Wellesley, Mass.). The best-fit 50% inhibitory concentration (IC₅₀) values were calculated by fitting the data by nonlinear regression using GraphPad Prism 4.0 (GraphPad Software, Inc., San Diego, Calif.). Experiments were performed twice with triplicate samples.

[6] = biological target: T3, soluble VEGFR1D1-D6 (sVEGFR1) (Homo sapiens (Human), UniProt P17948 27-687); assay: plate-coated sVEGFR1, competition with 125I-VEGF165
T3 construct: Coated on 96-well plates
Procedure: as §2

[7] = biological target: T2, human VEGFR-2 (KDR) expressed on …; assay: competitive cell binding on PAE/KDR against PAE/FLT-1 cells
Procedure: as §1
(§3) Two proteins were prepared for this study: VEGF₁₂₁ and the triple mutant at the 63, 64, and 67 positions (VEGFDEE) (FIG. 17). The His-tag containing proteins were purified to homogeneity. Cell binding assay was then carried out to determine the VEGFR-1 and VEGFR-2 binding affinity (FIGS. 18a and 18b).

[8] = biological target: T4, human VEGFR-1 (FLT-1) expressed on porcine aortic endothelial cells (PAE/FLT-1) (human, UniProt P17948 27-1338); assay: competitive cell binding on PAE/FLT-1 cells
T4 construct: whole, on cells; also called PAE/VEGFR-1 cells; PAE/FLT-1 cells
Procedure: as §1, §3

[9] = biological target: T2, human VEGFR-2 (KDR) expressed on …; assay: competitive cell binding on PAE/KDR cells
Procedure: as §1, §3

[10] = biological target: T4, human VEGFR-1 (FLT-1) expressed on …; assay: competitive cell binding on PAE/FLT-1 cells, 125I-VEGF165 as radioligand
Procedure: as §1, §3

B2: DOTA-VEGF121 (Example 5) (ligand)
chain: APMAEGGGQNHHEVVKFMDVYQRSYCHPIETLVDIFQEYPDEIEYIFKPSCVPLMRCGGCCNDEGLECVPTEESNITMQIMRIKPHQGQHIGEMSFLQHNKCECRPKKDRARQEKCDKPRR
modifications: DOTA conjugated; 2.1±0.1 DOTA molecules per monomeric VEGF121; sites not stated
notes: DOTA conjugate of m3; not shown: His-tag
functional assay using PAE/KDR cells (FIG. 18e) [2]: > 5 nM
phosphorylated VEGFR-2 (Western blot, PAE/KDR cells) [2]: > 10 nM
IC50 [3]: 5 nM

B3: VEGF121 protein (Examples 1 and 2: expressed from pET-32, tag removed with enterokinase) (ligand)
chain: B2 chain
notes: also called unlabeled VEGF121; naive VEGF121
IC50 [4]: 1.11 nM
IC50 [3]: 1.02 nM

B5: DOTA-VEGF121 (Examples 1 and 2) (ligand)
chain: B2 chain
modifications: DOTA conjugated to lysine residues and/or N-terminal amine groups; 4.33±0.24 DOTA per VEGF121
notes: The conjugation sites are not mapped
IC50 [4]: 1.59 nM
IC50 [3]: 1.66 nM

B7: DOTA-VEGFDEE (ligand)
chain: MAPMAEGGGQNHHEVVKFMDVYQRSYCHPIETLVDIFQEYPDEIEYIFKPSCVPLMRCGGCCNAAGLACVPTEESNITMQIMRIKPHQGQHIGEMSFLQHNKCECRPKKDRARQEKCDKPRRGS
modifications: DOTA conjugated; 2.2±0.1 DOTA molecules per monomeric VEGFDEE; sites not stated
notes: DOTA conjugate of m4; not shown: His-tag
functional assay using PAE/KDR cells (FIG. 18e) [2]: > 5 nM
phosphorylated VEGFR-2 (Western blot, PAE/KDR cells) [2]: > 10 nM
IC50 [3]: 10.3 nM

Now from value to binder:

IC50 [1]: 4.2 nM
B1: VEGF121 protein (Examples 3 and 5: His-tag containing, expressed from pRSF-Duet1), P15692 207-395 (ligand, not shown: small tags and cut ends)
chain: B2 chain

functional assay using PAE/KDR cells (FIG. 18e) [2]: > 5 nM
phosphorylated VEGFR-2 (Western blot, PAE/KDR cells) [2]: > 10 nM
IC50 [5]: 2.9 nM
IC50 [6]: 4 nM
B4: VEGF121 protein (Examples 3 and 5: His-tag containing, expressed from pRSF-Duet1) (ligand)
chain: B2 chain
notes: No tag removal is described; also called wild type VEGF121; wild-type VEGF121; not shown: His-tag

functional assay using PAE/KDR cells (FIG. 18e) [2]: > 5 nM
phosphorylated VEGFR-2 (Western blot, PAE/KDR cells) [2]: > 10 nM
fold higher binding affinity against VEGFR-1 [7]: ~7 fold
fold lower binding against VEGF121 [8]: ~20 fold
fold lower binding affinity against VEGF121 [9]: 4 fold
IC50 [3]: 11.7 nM
IC50 [10]: 78.1 nM
B6: VEGFR-2 specific mutant VEGFDEE (D63AE64AE67A mutant of VEGF121) (ligand)
chain: B7 chain
notes: also called VEGF121-DEE Mutant; not shown: His-tag
